# Assay results: the supplement of paper PMC12764529
# ± gives the half width of the 95% confidence interval.
# Experiments:
# [1] = folding stability dG unfold from chymotrypsin proteolysis; higher = more stable
# Procedure, shortened: (§1)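 Digests were run with trypsin and chymotrypsin at 11 concentrations in threefold dilutions, plus a no-protease condition, on designed mini-proteins in a PA-tagged cDNA display construct. The mini-proteins were under 80 residues, had no cysteine, and were kept only when AlphaFold2 dimer inter-PAE was above 15. After sequencing, Bayesian fitting of the counts gave K50, from which unfolding free energy was derived against a sequence-predicted unfolded-state K50 and a shared folded-state K50, per protease or combined.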
# [2] = folding stability dG unfold from trypsin proteolysis; higher = more stable
# Procedure, shortened: as §1
# [3] = folding stability dG unfold (combined trypsin and chymotrypsin); higher = more stable
# Procedure, shortened: as §1
Sequence,folding stability dG unfold [1] [kcal/mol],folding stability dG unfold [2] [kcal/mol],folding stability dG unfold [3] [kcal/mol]
SAGDGITVNPEKVTLTLDITLPDGTVLRVTVTLTPDGVEVTVEPVPVPPLPGATSPEEAEELLKQALASSAG [r5_272_TrMRF],2.37 ± 0.086,1.99 ± 0.09,2.34 ± 0.083
SAGDKGRYHFPFTVTMPPGKPPSQIEDALGKYGWDDVDINREPPPNGETKYTINVHMPKEDLPKLLEAFSAG [r5_376_TrROS],0.933 ± 0.26,0.895 ± 0.039,0.963 ± 0.12
SAGDKIEIKFNIPMPEGPIRIMVWDNGKREEKDIPPGEEVTIKIDLPPGDDYRIAIYYPDGNMHEFPINSAG [r5_187_TrROS],3.31 ± 0.14,1.65 ± 0.17,2.47 ± 0.25
SAGDNMYKYDYENPWYGIKIEVWVSPNGQIVSIKVKIEKVPPVPPKPPIDPEDMVPDPDGKYRSPNDLDSAG [r5_685_TrROS],2.26 ± 0.026,1.4 ± 0.098,1.95 ± 0.099
SAGDVVEIEITYWVPPDEMTVDEFVDHIMSMLPGVKVKSIEIDEIHPYPDGWYEVTVNYTIEVPPGQEISAG [r5_682_TrROS],2.82 ± 0.12,2.53 ± 0.39,2.81 ± 0.16
SAGDWYIVIKITIYHPNKREREFPIVFDWKDGKIEIAPEFLQNIAEELGLPPNMKIEIEIVEIMPPNDSAGG [r19_287_TrROS],3.22 ± 0.099,1.75 ± 0.12,2.43 ± 0.55
SAGEEIAKRLAEELKEKGYEVEVKVTVEYDEETGEVTITIEIKVKPKPAPPVKIEKKLEGMSEEEKKALSAG [r5_413_TrROS_Hall],0.137 ± 0.084,0.113 ± 0.12,0.187 ± 0.29
SAGEEPPEVTIKVVEKDGKLVIEVEYNGKTLTITLEDGEKIEIKFPEGMSEEELLEEAKRLAKELAEKSAGG [r19_170_TrROS_Hall],1.9 ± 0.25,3.05 ± 0.35,2.63 ± 0.39
SAGEIKITVEEVEDGELLVTVEITAESKEEALKALEDLIRELFGEDVEIVSVEFDEETKRIRVTIRIKPSAG [r5_810_TrROS_Hall],3.51 ± 0.29,4.25 ± 0.21,4.35 ± 0.35
SAGEKEFEIVEVKVNKETNEVYFLVRDKEKNRLIKVHSNGTVEIYDLKDPGKKITINMSLEELLALLKKSAG [r5_491_TrROS_Hall],4.26 ± 0.19,2.49 ± 0.16,4.08 ± 0.19
SAGEKIKEALKKAGVEKVEIVEIKRLKNGKVLIVIRLHPDMSEEQRRRLLKALADALREEFPDVKIVELSAG [r5_101_TrROS_Hall],4.33 ± 0.051,4.79 ± 0.13,4.5 ± 0.052
SAGEKKEKEKEKKKEEEEKKKKEEEKKKEEEKKKEKTLKLEFTLPDGSKIEIEMTVEELKKLGLSPEELSAG [r5_12_TrROS_Hall],1.29 ± 0.12,0.836 ± 0.14,1.03 ± 0.42
SAGEKPEKPPEVTITITSVKVERLPDGTVVVEVEAEIEVDGVTLTVRARFVYRDGKLFLEVEVRLEPLPSAG [r5_267_TrROS_Hall],5.47 ± 0.24,3.5 ± 0.19,4.59 ± 0.95
SAGEKVEITLVVKVEKDEDGRYRLTEEELREIAKALGLDFEVKSVEIERVPGYLVIRVTVDGKEYEFLSAGG [r19_398_TrROS_Hall],3.04 ± 0.033,2.95 ± 0.089,2.98 ± 0.069
SAGELAEKLAEELRKLFPNAEVEVEVVEVKEDYVVVKIRLRVVDEETGEEKTVEVELTLVLKPGEILPSAGG [r19_8_TrROS_Hall],4.66 ± 0.44,3.79 ± 0.14,4.29 ± 0.3
SAGEVELEVPIEALKKLPNLEGATVRVTVKLNENGELEITIEVEKAPEPPLTEEEKKKLLEEEEKKKKSAGG [r19_313_TrROS_Hall],1.31 ± 0.31,-0.203 ± 0.63,1.06 ± 0.48
SAGEVKPGETVTLTIVLSKEELEKLEELAKALPGVEVTEVKVEKLPDGLVRVTITVTKEALEKLKELLESAG [r5_554_TrROS_Hall],3.71 ± 0.22,3.28 ± 0.21,3.5 ± 0.19
SAGEWYRMSITFDLDPDNRDQLEKIAEKIREKDGFDKIEPVEHDPSNGRVTINVYMPPEAQDKIQEALRSAG [r5_193_TrROS],1.25 ± 0.15,0.941 ± 0.1,1.27 ± 0.18
SAGFGVYKHKYKYDNDDGNPKPKKPEEEPVEPAPPIEPLPIPIRLPDGQPFTFTILSISPKNNNISLNGSAG [r5_735_TrROS],0.382 ± 0.2,0.279 ± 0.22,0.452 ± 0.2
SAGFKIDDVETEKDPDGEKEITFRYVDPGDGRPWMLNLRINPNGKLTEENPVPFDDFPPGSYWTIRIKSAGG [r19_393_TrROS],-0.0517 ± 0.41,0.636 ± 0.14,0.402 ± 0.18
SAGFKIKIEPDKNMPPGQKPMTEEELKKIAKSIAKQMEQDPGNPGKEVKIEIPFYFPDGYWYRIEIEKSAGG [r19_132_TrROS],0.647 ± 0.29,0.259 ± 0.19,0.506 ± 0.34

Sequence,folding stability dG unfold [1] [kcal/mol],folding stability dG unfold [2] [kcal/mol],folding stability dG unfold [3] [kcal/mol]
SAGFQIERKRDPDGKYEVEIKFPHPDGHPMRVKIPINPKEGKIKIDEIESTNPGHKQRMEELARWFLKASAG [r5_266_TrROS],-0.526 ± 0.38,-0.4 ± 0.29,-0.44 ± 0.16
SAGFSVEVTYNPPTGYLEIRFYNPPPNKPLKKETLEEIARKLLEELGIEGEIVEIKEEGNVYTIKVKIPSAG [r14_556_TrMRF],4.65 ± 0.068,4.56 ± 0.19,4.62 ± 0.084
SAGFTIEIENEDGKKITFRFPGWKIEIYPKDGIIMMRYPEENMSIMIKVDPNKIKIQVYDGGKWRWFPISAG [r5_786_TrROS],3.92 ± 0.08,2.86 ± 0.13,3.69 ± 0.47
SAGFWIRIDPKNPRIYISGMPPGMIELIAENAGAPDVTPVKPGRPWWDARDNHPDPDAVIPIPPENMMSAGG [r19_270_TrROS],-0.39 ± 0.39,0.319 ± 0.16,0.0233 ± 0.24
SAGGAEEIRKELGISPEEKVTVKLVVPEGGRPREFTVEMKPDELEKVLEELGVPPEKLEITEVEVIEESAGG [r13_681_JUSTAS],-0.121 ± 0.21,-1.39 ± 0.38,-0.456 ± 0.21
SAGGAEELAKALADELRKLFPGEEIEVTVELVEVEVEPGQKVTLPDGSTVEVPPGAKVLVLKITVKPSAGGS [r16_357_TrROS_Hall],3.56 ± 0.13,3.13 ± 0.16,3.44 ± 0.14
SAGGAEVDPETKVVHIRIRARSAEELLAAIEALPADEVIIEVYNEETGKTERIRLSREELRKLLEEASAGGS [r16_797_TrROS_Hall],2.82 ± 0.018,1.92 ± 0.021,2.54 ± 0.031
SAGGAFEMSNEYWFPDGFRVKLKVEVYPNGMFMLDLEIEPIPPPPPIKIEKDPDGEYKYDPNGQPQKDSAGG [r13_151_TrROS],3.36 ± 0.18,2.58 ± 0.18,2.91 ± 0.38
SAGGAFIKDFDVEEDPNGHRKFKFELPNGWKYDITIHPDFPQIEIKPIKPIEPPPIPADDPEQAEEQSAGGS [r16_482_TrROS],0.429 ± 0.47,0.699 ± 0.11,0.552 ± 0.37
SAGGAGPEKAEELARALAAELEEEGREWRFKITYSAEPEILSIDVYPLSEPLVDDAKPGYRTLYYDAPSAGG [r13_693_TrMRF],1.19 ± 0.29,0.659 ± 0.093,0.957 ± 0.12
SAGGALDAIKNIAEKFGFPEIEDIDIDPDNGWLSFRFRGPEPVYIKIPWKPDKNGNLPVNIEVYPMDDSAGG [r13_410_TrROS],1.88 ± 0.11,1.48 ± 0.041,1.65 ± 0.13
SAGGALEKILEAIENAPTSVPEVTVEIELPTGTLKATITNKGKPVLITIELTHPDGSKSTITLTFSLSAGGS [r16_642_TrMRF],4.28 ± 0.079,2.78 ± 0.091,3.78 ± 0.063
SAGGAMPVELVETLEEIPGKGIVLRKFRDPLSDKWFLATVPVETLPNGEKKYLIELNIDGSGMTLELGSAGG [r13_993_JUSTAS],0.11 ± 0.22,0.0151 ± 0.099,0.173 ± 0.17
SAGGAPVSVSTSTLPDGRTVTTTTYPSGSTTTTITDPVTGATATASSPGSGTTTFTDPATGATTVVGSAGGS [r16_91_JUSTAS],0.635 ± 0.029,1.36 ± 0.053,1.02 ± 0.065
SAGGAPVTTFSLTLENPETGLNWTSTSATYDPATGTLTLNLKRPQSGESLTLTTPVTVVSPEEPELASAGGS [r8_193_JUSTAS],0.819 ± 0.084,0.699 ± 0.052,0.813 ± 0.11
SAGGARVFEVTFPDGSRARIVLLPDGTLLLETDSLDNLVALLEALGVELVSIRRHPDGRVLAVARLPPSAGG [r19_257_TrMRF],4.32 ± 0.14,4.49 ± 0.14,4.43 ± 0.082
SAGGASFSLSEGYDPSLGKTFTRETEAPEVPVPPVTVVPLSEIGRLKAEGVPPSWTVDPETGTVTVTSAGGS [r16_194_JUSTAS],0.564 ± 0.072,-0.647 ± 0.19,0.258 ± 0.059
SAGGATFAPGQTITVTVTVTLADGSTVTVTATVRIEVRAAPAPPVTVTNADGSTRTFTSAEEARAAASAGGS [r16_580_TrROS_Hall],0.211 ± 0.25,1.46 ± 0.033,1.01 ± 0.098
SAGGATIELEAEEHPETKKITIYVKSENPILTIEKIAKELKEKEDDIELTLVNEDGVPYTIKLEDLISAGGS [r8_236_TrMRF],0.38 ± 0.2,-0.957 ± 0.47,0.217 ± 0.3
SAGGATIELEVLLEDGTLVRVRAELDEDGRLVSVEVEVRRLEPPPPPPPPERTETRVETRTEYRPEESAGGS [r8_270_TrROS_Hall],3.23 ± 0.52,2.73 ± 0.35,2.95 ± 0.48
SAGGATITVEPAPGDSVVALAEFGDSLALVTFYPKEATAKVTVFGPNGIPSTATFTIKPGEELVITGSAGGS [r8_11_TrMRF],1.59 ± 0.096,1.25 ± 0.079,1.47 ± 0.13
